In PMC8298264, “Function of cofactor Akirin2 in the regulation of gene expression in model human neutrophil-like HL60 cells” (Bioscience Reports, 2021):

B1: sp¦O43633¦CHM2A_HUMAN (protein, UniProt O43633 1-222, looked up)
Charged multivesicular body …: MDLLFGRRKTPEELLRQNQRALNRAMRELDRERQKLETQEKKIIADIKKMAKQGQMDAVRIMAKDLVRTRRYVRKFVLMRANIQAVSLKIQTLKSNNSMAQAMKGVTKAMGTMNRQLKLPQIQKIMMEFERQAEIMDMKEEMMNDAIDDAMGDEEDEEESDAVVSQVLDELGLSLTDELSNLPSTGGSLSVAAGGKKAEAAASALADADADLEERLKNLRRD
B2: sp¦P13693¦TCTP_HUMAN (protein, UniProt P13693 1-172, looked up)
Translationally-controlled …: MIIYRDLISHDEMFSDIYKIREIADGLCLEVEGKMVSRTEGNIDDSLIGGNASAEGPEGEGTESTVITGVDIVMNHHLQETSFTKEAYKKYIKDYMKSIKGKLEEQRPERVKPFMTGAAEQIKHILANFKNYQFFIGENMNPDGMVALLDYREDGVTPYMIFFKDGLEMEKC
B3: sp¦Q9P013¦CWC15_HUMAN (protein, UniProt Q9P013 2-229, looked up)
Spliceosome-associated …: TTAARPTFEPARGGRGKGEGDLSQLSKQYSSRDLPSHTKIKYRQTTQDAPEEVRNRDFRRELEERERAAAREKNRDRPTREHTTSSSVSKKPRLDQIPAANLDADDPLTDEEDEDFEEESDDDDTAALLAELEKIKKERAEEQARKEQEQKAEEERIRMENILSGNPLLNLTGPSQPQANFKVKRRWDDDVVFKNCAKGVDDQKKDKRFVNDTLRSEFHKKFMEKYIK
B4: sp¦P30533¦AMRP_HUMAN (protein, UniProt P30533 35-357, looked up)
Alpha-2-macroglobulin …: YSREKNQPKPSPKRESGEEFRMEKLNQLWEKAQRLHLPPVRLAELHADLKIQERDELAWKKLKLDGLDEDGEKEARLIRNLNVILAKYGLDGKKDARQVTSNSLSGTQEDGLDDPRLEKLWHKAKTSGKFSGEELDKLWREFLHHKEKVHEYNVLLETLSRTEEIHENVISPSDLSDIKGSVLHSRHTELKEKLRSINQGLDRLRRVSHQGYSTEAEFEEPRVIDLWDLAQSANLTDKELEAFREELKHFEAKIEKHNHYQKQLEIAHEKLRHAESVGDGERVSRSREKHALLEGRTKELGYTVKKHLQDLSGRISRARHNEL
B5: sp¦P04080¦CYTB_HUMAN (protein, UniProt P04080 1-98, looked up)
Cystatin-B: MMCGAPSATQPATAETQHIADQVRSQLEEKENKKFPVFKAVSFKSQVVAGTNYFIKVHVGDEDFVHLRVFQSLPHENKPLTLSNYQTNKAKHDELTYF
B6: Resistin (protein, UniProt Q9HD89 19-108, looked up)
Resistin: KTLCSMEEAINERIQEVAGSLIFRAISSIGLECQSVTSRGDLATCPRGFAVTGCTCGSACGSWDVRAETTCHCQCAGMDWTGARCCRVQP
B7: Annexin A5 (protein, UniProt P08758 2-320, looked up)
Annexin A5: AQVLRGTVTDFPGFDERADAETLRKAMKGLGTDEESILTLLTSRSNAQRQEISAAFKTLFGRDLLDDLKSELTGKFEKLIVALMKPSRLYDAYELKHALKGAGTNEKVLTEIIASRTPEELRAIKQVYEEEYGSSLEDDVVGDTSGYYQRMLVVLLQANRDPDAGIDEAQVEQDAQALFQAGELKWGTDEEKFITIFGTRSVSHLRKVFDKYMTISGFQIEETIDRETSGNLEQLLLAVVKSIRSIPAYLAETLYYAMKGAGTDDHTLIRVMVSRSEIDLFNIRKEFRKNFATSLYSMIKGDTSGDYKKALLLLCGEDD
B8: sp¦O75368¦SH3L1_HUMAN (protein, UniProt O75368 1-114, looked up)
Adapter SH3BGRL: MVIRVYIASSSGSTAIKKKQQDVLGFLEANKIGFEEKDIAANEENRKWMRENVPENSRPATGYPLPPQIFNESQYRGDYDAFFEARENNAVYAFLGLTAPPGSKEAEVQAKQQA
B9: Eosinophil cationic protein (protein, UniProt P12724 28-160, looked up)
Eosinophil cationic protein: RPPQFTRAQWFAIQHISLNPPRCTIAMRAINNYRWRCKNQNTFLRTTFANVVNVCGNQSIRCPHNRTLNNCHRSRFRVPLLHCDLINPGAQNISNCTYADRPGRRFYVVACDNRDPRDSPRYPVVPVHLDTTI
B10: sp¦P40121¦CAPG_HUMAN (protein, UniProt P40121 1-348, looked up)
Macrophage-capping protein: MYTAIPQSGSPFPGSVQDPGLHVWRVEKLKPVPVAQENQGVFFSGDSYLVLHNGPEEVSHLHLWIGQQSSRDEQGACAVLAVHLNTLLGERPVQHREVQGNESDLFMSYFPRGLKYQEGGVESAFHKTSTGAPAAIKKLYQVKGKKNIRATERALNWDSFNTGDCFILDLGQNIFAWCGGKSNILERNKARDLALAIRDSERQGKAQVEIVTDGEEPAEMIQVLGPKPALKEGNPEEDLTADKANAQAAALYKVSDATGQMNLTKVADSSPFALELLISDDCFVLDNGLCGKIYIWKGRKANEKERQAALQVAEGFISRMQYAPNTQVEILPQGHESPIFKQFFKDWK
B11: sp¦P08246¦ELNE_HUMAN (protein, UniProt P08246 30-267, looked up)
Neutrophil elastase: IVGGRRARPHAWPFMVSLQLRGGHFCGATLIAPNFVMSAAHCVANVNVRAVRVVLGAHNLSRREPTRQVFAVQRIFENGYDPVNLLNDIVILQLNGSATINANVQVAQLPAQGRRLGNGVQCLAMGWGLLGRNRGIASVLQELNVTVVTSLCRRSNVCTLVRGRQAGVCFGDSGSPLVCNGLIHGIASFVRGGCASGLYPDAFAPVAQFVNWIDSIIQRSEDNPCPHPRDPDPASRTH
B12: Heat shock protein 105 kDa (protein, UniProt Q92598 2-858, looked up)
Heat shock protein 105 kDa: SVVGLDVGSQSCYIAVARAGGIETIANEFSDRCTPSVISFGSKNRTIGVAAKNQQITHANNTVSNFKRFHGRAFNDPFIQKEKENLSYDLVPLKNGGVGIKVMYMGEEHLFSVEQITAMLLTKLKETAENSLKKPVTDCVISVPSFFTDAERRSVLDAAQIVGLNCLRLMNDMTAVALNYGIYKQDLPSLDEKPRIVVFVDMGHSAFQVSACAFNKGKLKVLGTAFDPFLGGKNFDEKLVEHFCAEFKTKYKLDAKSKIRALLRLYQECEKLKKLMSSNSTDLPLNIECFMNDKDVSGKMNRSQFEELCAELLQKIEVPLYSLLEQTHLKVEDVSAVEIVGGATRIPAVKERIAKFFGKDISTTLNADEAVARGCALQCAILSPAFKVREFSVTDAVPFPISLIWNHDSEDTEGVHEVFSRNHAAPFSKVLTFLRRGPFELEAFYSDPQGVPYPEAKIGRFVVQNVSAQKDGEKSRVKVKVRVNTHGIFTISTASMVEKVPTEENEMSSEADMECLNQRPPENPDTDKNVQQDNSEAGTQPQVQTDAQQTSQSPPSPELTSEENKIPDADKANEKKVDQPPEAKKPKIKVVNVELPIEANLVWQLGKDLLNMYIETEGKMIMQDKLEKERNDAKNAVEEYVYEFRDKLCGPYEKFICEQDHQNFLRLLTETEDWLYEEGEDQAKQAYVDKLEELMKIGTPVKVRFQEAEERPKMFEELGQRLQHYAKIAADFRNKDEKYNHIDESEMKKVEKSVNEVMEWMNNVMNAQAKKSLDQDPVVRAQEIKTKIKELNNTCEPVVTQPKPKIESPKLERTPNGPNIDKKEEDLEDKNNFGAEPPHQNGECYPNEKNSVNMDLD
B13: Serpin B10 (protein, UniProt P48595 1-397, looked up)
Serpin B10: MDSLATSINQFALELSKKLAESAQGKNIFFSSWSISTSLTIVYLGAKGTTAAQMAQVLQFNRDQGVKCDPESEKKRKMEFNLSNSEEIHSDFQTLISEILKPNDDYLLKTANAIYGEKTYAFHNKYLEDMKTYFGAEPQPVNFVEASDQIRKDINSWVERQTEGKIQNLLPDDSVDSTTRMILVNALYFKGIWEHQFLVQNTTEKPFRINETTSKPVQMMFMKKKLHIFHIEKPKAVGLQLYYKSRDLSLLILLPEDINGLEQLEKAITYEKLNEWTSADMMELYEVQLHLPKFKLEDSYDLKSTLSSMGMSDAFSQSKADFSGMSSARNLFLSNVFHKAFVEINEQGTEAAAGSGSEIDIRIRVPSIEFNANHPFLFFIRHNKTNTILFYGRLCSP
B14: Bone marrow proteoglycan (protein, UniProt P13727 17-222, looked up)
Bone marrow proteoglycan: LHLRSETSTFETPLGAKTLPEDEETPEQEMEETPCRELEEEEEWGSGSEDASKKDGAVESISVPDMVDKNLTCPEEEDTVKVVGIPGCQTCRYLLVRSLQTFSQAWFTCRRCYRGNLVSIHNFNINYRIQCSVSALNQGQVWIGGRITGSGRCRRFQWVDGSRWNFAYWAAHQPWSRGGHCVALCTRGGHWRRAHCLRRLPFICSY
B15: sp¦P30740¦ILEU_HUMAN (protein, UniProt P30740 1-379, looked up)
Leukocyte elastase inhibitor: MEQLSSANTRFALDLFLALSENNPAGNIFISPFSISSAMAMVFLGTRGNTAAQLSKTFHFNTVEEVHSRFQSLNADINKRGASYILKLANRLYGEKTYNFLPEFLVSTQKTYGADLASVDFQHASEDARKTINQWVKGQTEGKIPELLASGMVDNMTKLVLVNAIYFKGNWKDKFMKEATTNAPFRLNKKDRKTVKMMYQKKKFAYGYIEDLKCRVLELPYQGEELSMVILLPDDIEDESTGLKKIEEQLTLEKLHEWTKPENLDFIEVNVSLPRFKLEESYTLNSDLARLGVQDLFNSSKADLSGMSGARDIFISKIVHKSFVEVNEEGTEAAAATAGIATFCMLMPEENFTADHPFLFFIRHNSSGSILFLGRFSSP
B16: Hematopoietic lineage cell-specific protein (protein, UniProt P14317 1-486, looked up)
Hematopoietic lineage …: MWKSVVGHDVSVSVETQGDDWDTDPDFVNDISEKEQRWGAKTIEGSGRTEHINIHQLRNKVSEEHDVLRKKEMESGPKASHGYGGRFGVERDRMDKSAVGHEYVAEVEKHSSQTDAAKGFGGKYGVERDRADKSAVGFDYKGEVEKHTSQKDYSRGFGGRYGVEKDKWDKAALGYDYKGETEKHESQRDYAKGFGGQYGIQKDRVDKSAVGFNEMEAPTTAYKKTTPIEAASSGTRGLKAKFESMAEEKRKREEEEKAQQVARRQQERKAVTKRSPEAPQPVIAMEEPAVPAPLPKKISSEAWPPVGTPPSSESEPVRTSREHPVPLLPIRQTLPEDNEEPPALPPRTLEGLQVEEEPVYEAEPEPEPEPEPEPENDYEDVEEMDRHEQEDEPEGDYEEVLEPEDSSFSSALAGSSGCPAGAGAGAVALGISAVAVYDYQGEGSDELSFDPDDVITDIEMVDEGWWRGRCHGHFGLFPANYVKLLE

Test system: human HL60 cells
Assay: SWATH-MS proteomics, differential protein representation, akirin2 KO vs WT HL60 cells
Format: cell-based
Conditions: SWATH-MS, akirin2 KO vs WT HL60 cells; over-represented in KO
Outline: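 WT and akirin2 KO HL60 lysates (150 µg, n=3 biological replicates) were FASP trypsin-digested and desalted. A spectral library was built by IDA from 3 µg digests, then 5 µg per sample went to variable-window SWATH DIA over a 120-min 5–30% acetonitrile gradient. Identifications were accepted at 1% global FDR, with total-area-sum normalization.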

Molecule	Fold Change	Log (Fold Change)
B1	1.663	0.2209
B2	1.634	0.2132
B3	1.692	0.2285
B4	1.604	0.2053
B5	1.628	0.2117
B6	1.774	0.2489
B7	1.702	0.231
B8	1.672	0.2233
B9	5.495	0.7399
B10	1.617	0.2088
B11	1.634	0.2132
B12	1.783	0.2511
B13	1.749	0.2428
B14	6.406	0.8066
B15	1.651	0.2178
B16	1.764	0.2466
